Measured values from paper PMC7935748 (Molecular cell, 2021).

How the values were obtained:
MBP-RADX QVPK = MBP-RADX QVPK (Homo sapiens, UniProt Q6NSI4 1-855, Q451A;V452A;P453A;K454A); assay: EMSA
MBP-RADX = MBP-RADX (Homo sapiens, UniProt Q6NSI4 1-855); assay: EMSA
[1] = molecular target: FLAG-GFP-RADX alanine mutant of residues 365-368 (human, UniProt Q6NSI4 1-855, 4-residue alanine mutation of residues 365-368); assay: pull-down
FLAG-GFP-RADX R389E = FLAG-GFP-RADX R389E (human, UniProt Q6NSI4 1-855, R389E); assay: pull-down
FLAG-GFP-RADX = FLAG-GFP-RADX (human, UniProt Q6NSI4 1-855); assay: pull-down

Row | binding result [1] | binding result (FLAG-GFP-RADX R389E) | binding result (FLAG-GFP-RADX) | Binder | binding result (MBP-RADX QVPK) | binding result (MBP-RADX)
1 | – | – | – | dT60 (ssDNA) DNA: TTTTTTTTTTTTTTTTTTTTTTTTTTTTTTTTTTTTTTTTTTTTTTTTTTTTTTTTTTTT | binds | binds
2 | binds | binds | binds | Human RAD51 (natural protein, UniProt Q06609 1-339, looked up) MAMQMQLEANADTSVEEESFGPQPISRLEQCGINANDVKKLEEAGFHTVEAVAYAPKKELINIKGISEAKADKILAEAAKLVPMGFTTATEFHQRRSEIIQITTGSKELDKLLQGGIETGSITEMFGEFRTGKTQICHTLAVTCQLPIDRGGGEGKAMYIDTEGTFRPERLLAVAERYGLSGSDVLDNVAYARAFNTDHQTQLLYQASAMMVESRYALLIVDSATALYRTDYSGRGELSARQMHLARFLRMLLRLADEFGVAVVITNQVVAQVDGAAMFAADPKKPIGGNIIAHASTTRLYLRKGRGETRICKIYDSPCLPEAEAMFAINADGVGDAKD | – | –
3 | – | – | binds | RAD51 K133R (natural protein, human, UniProt Q06609 1-339, looked up) MAMQMQLEANADTSVEEESFGPQPISRLEQCGINANDVKKLEEAGFHTVEAVAYAPKKELINIKGISEAKADKILAEAAKLVPMGFTTATEFHQRRSEIIQITTGSKELDKLLQGGIETGSITEMFGEFRTGRTQICHTLAVTCQLPIDRGGGEGKAMYIDTEGTFRPERLLAVAERYGLSGSDVLDNVAYARAFNTDHQTQLLYQASAMMVESRYALLIVDSATALYRTDYSGRGELSARQMHLARFLRMLLRLADEFGVAVVITNQVVAQVDGAAMFAADPKKPIGGNIIAHASTTRLYLRKGRGETRICKIYDSPCLPEAEAMFAINADGVGDAKD | – | –
